Experimental data taken from patent publication US7108988B2, “Methods of identifying agents for inhibiting lentivirus replication” (priority 2001, dated 2006).

Key:
CyPA [1] = target: T1, CyPA (Homo sapiens, UniProt P62937); assay: Surface plasmon resonance (BIAcore) binding of Vpr peptides to immobilized recombinant CyPA; conditions: 25° C.; for binding to CyPA: peptide 1 to 250 μM, immobilized recombinant CyPA
T1 construct: purchased Sigma
Experimental: Surface plasmon resonance biosensor analysis (BIAcore-Spectroscopy) was applied to analyze the molecular aspects that govern interaction of Vpr with CyPA. For the first experiment, a novel peptide comprising the first 40 residues of the Vpr protein derived from the isolate HIV-1NL4-3 was used to study the interaction with CyPA.
Surface plasmon resonance measurements were performed at 25° C. using a BIACORE 2000 (BIAcore AB, Upsala Sweden) equipped with a CM5 research-grade sensor chip. […] The peptide Vpr^1-40 was dissolved at concentrations ranging from 1 to 250 μM in a running buffer (10 mM Hepes, 150 mM NaCl, 50 μM EDTA, 0.005% Tween 20, pH 7.4) and was injected over the flow cells containing CyPA bound to the chip matrix at a flow rate of 5 μl/min. Data were collected at a rate of 2.5 Hz during the 120 s association and dissociation phase. Vpr^1-40 interactions reached equilibrium rapidly and dissociation completely within 30 seconds. Results were corrected by the RU-values of the reference cell (without CyPA) to exclude unspecific binding of Vpr to the chip matrix. The experiment was repeated at least three times with two different charges of peptide and CyPA and reproducible results were obtained.
Synthetic Vpr^1-40 and mutants carrying Pro to Asn exchanges at either amino acid positions 5, 10 and 14 (P^5,10,14 to N ) or at position 35 (P^35 to N) or at all four positions (P^5,10,14,35 to N) were purified to homogeneity, and tested for binding to immobilized recombinant CyPA using the same surface plasmon resonance biosensor system. […] Thus, among prolines at positions 5, 10, 14, and 35 of Vpr^1-40, only proline-35 is essential for binding to CyPA.

CyPA [2] = target: T1, CyPA; assay: Far-Western blot binding of Vpr to CyPA bound to nitrocellulose
Experimental: Investigation of full length Vpr^1-96 was not possible by BIAcore as the full length Vpr protein tends to undergo self association and protein precipitation, that all together yielded false positive binding signals. As an alternative we investigated the binding of Vpr to CyPA bound to nitrocellulose.
For the purpose of Far-Western Blot technique, purified recombinant CyPA was separated in a 15% SDS PAGE at a concentration of ˜150 ng CyPA per lane. Proteins were electro transferred onto nitrocellulose and individual strips of this CyPA-containing Western blot were blocked for 4 hours with 3% BSA in TBS. Strips were then incubated for 12 hrs at 4° C. with the peptide Vpr^1-96 at a concentration of 1 μg/ml, CyPA strips were incubated either in the absence of any detergent, or under more stringent conditions in TBS/T containing 0.5% Triton X100™ non-ionic detergent. Finally, strips were washed tree times in TBS/T for 10 minutes and bound Vpr was identified with anti-Vpr^1-96 (polyclonal antibodies raised in rabbits) followed by anti-rabbit IgG horse radish peroxidase (HRP) conjugate and enhanced chemiluminescence (ECL) staining. As a control, the CypA binding protein, HIV-1 capsid p24 was tested in parallel.

CyPA [3] = target: T1, CyPA; assay: In vitro CyPA/Vpr complex formation, non-reducing SDS-PAGE and Western blot; type: binding
Description: […] Proteins were separated on a 14% polyacrylamide gel in SDS (without reducing agents), by PAGE. Proteins were detected by Western blotting after transfer of the proteins from the gel to membranes. CyPA and Vpr proteins were detected using anti-Vpr and anti-CyPA antibodies (Calbiochem).

T1 sequence (P62937 whole entry): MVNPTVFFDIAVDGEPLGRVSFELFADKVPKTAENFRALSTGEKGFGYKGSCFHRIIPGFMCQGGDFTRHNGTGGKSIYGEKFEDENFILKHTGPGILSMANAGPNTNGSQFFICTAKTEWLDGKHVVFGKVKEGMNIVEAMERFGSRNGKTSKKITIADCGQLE

Vpr^1-40: peptide comprising the first 40 residues of the Vpr protein derived from the isolate HIV-1NL4-3
time to complete dissociation from CyPA (CyPA [1]): ≤ 30 s | binding to CyPA (CyPA [1]): concentration dependent binding to CyPA

Vpr^21-40: smaller fragment of Vpr
binding to CyPA (CyPA [1]): strong and dose-dependent binding to CyPA

P^5,10,14 to N (MEQANEDQGNQRENHNEWTL; Vpr 1-20; UniProt P69725 1-20, looked up, variant P5N P10N P14N)
binding to CyPA (CyPA [1]): retained dose-dependent binding to CyPA

Vpr^1-96: full length Vpr peptide
binding to CyPA (Far-Western) (CyPA [2]; 1 μg/ml peptide, absence of detergent): binds to CyPA | binding to CyPA (Far-Western) (CyPA [2]; presence of 0.5% TritonX100 non-ionic detergent): low affinity | binding to CyPA (Far-Western) (CyPA [2]; presence of 0.5% TritonX100 non-ionic detergent, listed as Vpr): reduced | complex formation with CyPA (CyPA [3]; 1 μg each, 22° C., 12 hours, no reducing agent): formation of a novel approximately 29 kDa product | complex formation with CyPA (CyPA [3]; with reducing agent (β-mercaptoethanol)): loss of the Vpr/CyPA complex

Vpr^1-20: very N-terminal fragment of Vpr
binding to CyPA (CyPA [1]): did not bind to CyPA

Pro-35 to Asn of Vpr^21-40: Vpr^21-40 with Pro-35 mutated to Asn
binding to CyPA (CyPA [1]): complete loss of CyPA binding
